Measurements as given in PMC9001643 (Scientific Reports, 2022).

Target: the molecule itself
Assay: crystal structure; His6-dmJMJD7.Mn(II).ligand complexes (2OG, succinate, N-oxalylglycine, 2,4-PDCA, N-oxalyl-D-alanine, N-oxalyl-D-phenylalanine); sitting drops at 25 °C, 0.1 M Bis-Tris pH 5.4, 0.3 M magnesium chloride, 18-23% PEG 3350; two molecules per asymmetric unit, space group P2_(1)

B1: Drosophila melanogaster Jumonji domain-containing 7 (His6-dmJMJD7) (enzyme, UniProt Q9VU77 1-316, looked up)
chain: MSEVERALDVLLQEAEELCIGSSVVELDRIPTALEFCREFYSKNQPVVIRKALNWPAIGKWTPKYLIEALGDRSVDVAITPNGYADGLATQNGQEYFVLPLETKMKLSEVVRRLDDPTGAVHYIQKQNSNLSVDLPELAADLRVSDLDFAQQSFNKPPDAVNFWLGDERAVTSMHKDPYENVYCVISGHKDFVLIPPHQLSCVPRGIYPTGVYKTSDSGQFYIEPLRDEEGSDQFTEWVSVDPLSPDLAKYPEYARAKPLKVRVHAGDILYLPNYWFHHVSQSHKCIAVNFWYDLDYDSRYCYYRMLEQMTSARSG
notes: JMJD7 of Drosophila melanogaster, full length, aa 1-316, UniProt Q9VU77, cloned into pET28a; Homodimer in the crystals; the two monomers are covalently linked by a disulfide bond Cys37-Cys37'; Crystallised with Mn(II) in place of Fe(II) and with 2OG, succinate or a 2OG analogue; also called JMJD7_DROME; not shown: His6, N-terminal, kept
stoichiometry N: 2
